Data: US20230399416A1 (MIRIMGENE, published 2023)

What was measured:
[1] = target: T1, human WARS1 recombinant protein (human, UniProt P23381 1-471, limits assumed); assay: SPR, Biacore T200, CM5 chip, serially diluted GKB101 injected
T1 construct: In the immunoblot the endogenous WARS1 of THP-1 human monocytes was also detected; also called human recombinant protein; tryptophanyl-tRNA synthetase 1, cytoplasmic
T1 sequence (looked up): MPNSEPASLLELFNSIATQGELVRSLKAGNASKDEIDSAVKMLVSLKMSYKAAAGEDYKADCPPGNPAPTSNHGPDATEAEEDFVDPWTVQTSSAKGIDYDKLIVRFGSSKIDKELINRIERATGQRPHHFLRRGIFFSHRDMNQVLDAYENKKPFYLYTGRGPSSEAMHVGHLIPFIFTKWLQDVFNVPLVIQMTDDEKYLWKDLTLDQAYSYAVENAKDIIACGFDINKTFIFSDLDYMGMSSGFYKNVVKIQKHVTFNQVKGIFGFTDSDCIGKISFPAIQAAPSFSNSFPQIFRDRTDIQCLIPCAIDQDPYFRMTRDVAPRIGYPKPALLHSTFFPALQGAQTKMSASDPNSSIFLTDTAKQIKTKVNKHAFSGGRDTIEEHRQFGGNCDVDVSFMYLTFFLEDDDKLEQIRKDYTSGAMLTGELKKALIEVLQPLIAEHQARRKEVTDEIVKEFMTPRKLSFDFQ
Method: (§1) 1) SPR: Binding ability was measured using Series S Sensor CM5 Chip (GE Healthcare Life Sciences) and GE Bioacore T200. A HBS-EP buffer (GE Healthcare Life Sciences) was used. After injecting serially diluted GKB101 or buffer for 1-10 minutes at a flow rate of 30 μL/min, the analyte was washed for 20 minutes.

[2] = target: T2, mouse WARS1 recombinant protein (mouse, UniProt P32921 1-481, limits assumed); assay: as above
T2 construct: In the immunoblot the endogenous WARS1 of J774.1A mouse macrophages was also detected; also called mouse recombinant protein
T2 sequence (looked up): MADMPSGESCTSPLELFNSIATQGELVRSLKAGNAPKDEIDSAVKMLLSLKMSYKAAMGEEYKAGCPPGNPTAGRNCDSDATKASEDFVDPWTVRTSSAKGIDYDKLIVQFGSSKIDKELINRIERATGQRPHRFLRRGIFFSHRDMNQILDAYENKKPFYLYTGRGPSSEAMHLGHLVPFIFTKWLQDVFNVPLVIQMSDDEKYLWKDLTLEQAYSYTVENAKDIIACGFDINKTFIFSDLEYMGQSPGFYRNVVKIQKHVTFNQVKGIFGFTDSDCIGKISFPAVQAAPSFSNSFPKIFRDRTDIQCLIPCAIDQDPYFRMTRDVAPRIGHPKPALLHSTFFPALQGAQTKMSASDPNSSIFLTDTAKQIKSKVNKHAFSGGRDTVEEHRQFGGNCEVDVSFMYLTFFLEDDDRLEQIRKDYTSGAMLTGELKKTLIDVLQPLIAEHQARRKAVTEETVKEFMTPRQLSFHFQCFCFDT
Method: as §1

B1: GKB101 (antibody, IgG1, V domains shown)
VH: EVQLLESGGGLVQPGGSLRLSCAASGFTFSSYDMSWVRQAPGKGLEWVSAISSGGSSIYYADSVKGRFTISRDNSKNTLYLQMNSLRAEDTAVYYCARDVAWDMLGDFDYWGQGTLVTVSS
VL: QSVLTQPPSASGTPGQRVTISCTGSSSNIGSNYVYWYQQLPGTAPKLLIYANSHRPSGVPDRFSGSKSGTSASLAISGLRSEDEADYYCGAWDDSLSAYVFGGGTKLTVTV
notes: IgG1 made from the selected scFv with the constant regions of herceptin expression vectors, expressed in Expi293F cells; Joined as printed they may lack a few residues at the junctions (VL/CL, CH2/CH3) and at the C-terminus of CH3; also called WARS1-specific antibody; anti-WARS1 antibody
Q: What does the source list for B1?
A: Kd [1]: ~0.2 nM; Kd [2]: ~3.76 nM
